According to publication PMC6477699, “Phylogenetic Analyses and GAGA-Motif Binding Studies of BBR/BPC Proteins Lend to Clues in GAGA-Motif Recognition and a Regulatory Role in Brassinosteroid Signaling”:
Numbering of substitutions follows the chain as printed.

How the values were obtained:
BPC1-WARH = target: T1, BPC1-WARH (Arabidopsis thaliana, UniProt Q9SKD0 1-270); assay: DPI-ELISA; DPI-ELISA/qDPI-ELISA: 3 ug total E. coli protein extract and 2 pmol biotinylated dsDNA per well in buffered solution; salt, pH and temperature not stated (cited protocols); settings: protein: recombinant; tags: N-terminal 6xHis (pET32b-GW); label: 5' or 3' biotin not specified, sense strand biotin
T1 sequence: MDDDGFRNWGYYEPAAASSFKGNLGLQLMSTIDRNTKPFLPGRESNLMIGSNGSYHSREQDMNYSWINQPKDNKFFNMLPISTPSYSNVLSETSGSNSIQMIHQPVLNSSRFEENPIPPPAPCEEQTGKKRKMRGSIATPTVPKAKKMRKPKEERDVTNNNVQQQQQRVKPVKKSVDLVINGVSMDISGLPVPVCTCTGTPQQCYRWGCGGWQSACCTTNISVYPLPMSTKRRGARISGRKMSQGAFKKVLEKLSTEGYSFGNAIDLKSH

BPC1-TIR = target: T2, BPC1-TIR (Arabidopsis thaliana, UniProt Q9SKD0 1-280); assay: DPI-ELISA; about 30% less than wild type; DPI-ELISA/qDPI-ELISA: 3 ug total E. coli protein extract and 2 pmol biotinylated dsDNA per well in buffered solution; salt, pH and temperature not stated (cited protocols); settings: protein: recombinant; tags: N-terminal 6xHis (pET32b-GW); label: 5' or 3' biotin not specified, sense strand biotin
T2 sequence: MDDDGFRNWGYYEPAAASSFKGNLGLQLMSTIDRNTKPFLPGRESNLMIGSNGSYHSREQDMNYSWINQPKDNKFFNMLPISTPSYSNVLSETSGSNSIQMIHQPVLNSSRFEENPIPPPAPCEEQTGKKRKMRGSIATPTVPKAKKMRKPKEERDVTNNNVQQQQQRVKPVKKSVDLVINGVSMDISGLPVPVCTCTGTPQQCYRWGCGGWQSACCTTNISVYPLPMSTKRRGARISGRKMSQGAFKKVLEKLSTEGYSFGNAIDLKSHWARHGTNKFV

GFP-BPC6 [1] = target: T3, GFP-BPC6 (Arabidopsis thaliana, UniProt Q8L999 1-342); assay: qDPI-ELISA; similar to the other 2x GAGA probes; DPI-ELISA/qDPI-ELISA: 3 ug total E. coli protein extract and 2 pmol biotinylated dsDNA per well in buffered solution; salt, pH and temperature not stated (cited protocols); settings: protein: recombinant; tags: GFP fusion; label: biotin on sense strand
T3 sequence: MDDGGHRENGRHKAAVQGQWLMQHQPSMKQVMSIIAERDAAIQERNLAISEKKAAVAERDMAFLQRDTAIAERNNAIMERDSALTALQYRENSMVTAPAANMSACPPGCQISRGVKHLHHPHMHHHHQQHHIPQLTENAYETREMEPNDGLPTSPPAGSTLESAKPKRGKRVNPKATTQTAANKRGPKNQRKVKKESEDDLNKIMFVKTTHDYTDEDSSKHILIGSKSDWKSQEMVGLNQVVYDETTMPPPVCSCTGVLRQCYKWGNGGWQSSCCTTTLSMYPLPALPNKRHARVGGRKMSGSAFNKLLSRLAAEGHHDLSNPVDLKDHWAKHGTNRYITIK

BPC1 [2] = target: T4, BPC1 (Arabidopsis thaliana, UniProt Q9SKD0 1-283); assay: DPI-ELISA; DPI-ELISA/qDPI-ELISA: 3 ug total E. coli protein extract and 2 pmol biotinylated dsDNA per well in buffered solution; salt, pH and temperature not stated (cited protocols); settings: protein: recombinant; tags: N-terminal 6xHis (pET32b-GW); label: biotin on sense strand
T4 sequence: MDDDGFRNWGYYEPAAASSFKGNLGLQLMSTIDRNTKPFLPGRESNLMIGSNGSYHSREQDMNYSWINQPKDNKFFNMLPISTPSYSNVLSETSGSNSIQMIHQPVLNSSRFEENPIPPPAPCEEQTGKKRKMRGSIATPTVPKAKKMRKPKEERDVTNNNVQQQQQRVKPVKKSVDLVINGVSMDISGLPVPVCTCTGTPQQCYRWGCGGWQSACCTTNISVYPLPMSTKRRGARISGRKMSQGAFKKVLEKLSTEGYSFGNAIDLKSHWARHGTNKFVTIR

GFP-BPC6 [3] = target: T3, GFP-BPC6; assay: qDPI-ELISA; DPI-ELISA/qDPI-ELISA: 3 ug total E. coli protein extract and 2 pmol biotinylated dsDNA per well in buffered solution; salt, pH and temperature not stated (cited protocols); settings: protein: recombinant; tags: GFP fusion; label: biotin on sense strand
GFP-BPC6 [4] = target: T3, GFP-BPC6; assay: qDPI-ELISA; negative binding probe, used as background; DPI-ELISA/qDPI-ELISA: 3 ug total E. coli protein extract and 2 pmol biotinylated dsDNA per well in buffered solution; salt, pH and temperature not stated (cited protocols); settings: protein: recombinant; tags: GFP fusion; label: biotin on sense strand
GFP-BPC6 [5] = target: T3, GFP-BPC6; assay: qDPI-ELISA; 2.5-times lower than BKn3; DPI-ELISA/qDPI-ELISA: 3 ug total E. coli protein extract and 2 pmol biotinylated dsDNA per well in buffered solution; salt, pH and temperature not stated (cited protocols); settings: protein: recombinant; tags: GFP fusion; label: biotin on sense strand
BPC1 [6] = target: T4, BPC1; assay: DPI-ELISA; comparable to K4; DPI-ELISA/qDPI-ELISA: 3 ug total E. coli protein extract and 2 pmol biotinylated dsDNA per well in buffered solution; salt, pH and temperature not stated (cited protocols); settings: protein: recombinant; tags: N-terminal 6xHis (pET32b-GW); label: biotin on sense strand

B1: K4 (dsDNA)
DNA 1: TAAAGGAGAAAGAAAGAGAAAGAGAGTTTC
DNA 2: GAAACTCTCTTTCTCTTTCTTTCTCCTTTA
binding result (BPC1-WARH): no binding
binding signal (BPC1-TIR): ~70 % of wild-type BPC1 signal

B2: GAGA2 (dsDNA)
DNA 1: GGAGCAAGTAAGAGATGAAACGAGAGTTTC
DNA 2: GAAACTCTCGTTTCATCTCTTACTTGCTCC
binding result (GFP-BPC6 [1]): binds

B3: BKn3 (dsDNA)
DNA 1: CCGCCATTAATTCATGAGAGAGAGAGAGAGACCAGAGATAA
DNA 2: TTATCTCTGGTCTCTCTCTCTCTCTCATGAATTAATGGCGG
binding signal (BPC1 [2]): ~2 fold of K4 signal
binding signal (GFP-BPC6 [3]): ~2.5 fold of KNAT1/BP fluorescence

B4: K4mut7mut5 (dsDNA)
DNA 1: B1 DNA 1 with A9C, A13T, A21C
DNA 2: B1 DNA 2 with T10G, T18A, T22G
binding result (GFP-BPC6 [1]): binds

B5: Kneg (dsDNA)
DNA 1: TAATGCAGCAAGTAAGACTACGACTGTTTC
DNA 2: GAAACAGTCGTAGTCTTACTTGCTGCATTA
binding result (GFP-BPC6 [4]): no binding

B6: K12 (dsDNA)
DNA 1: AATTGGAAATATGGAGAGAGAAAACAAATC
DNA 2: GATTTGTTTTCTCTCTCCATATTTCCAATT
binding result (GFP-BPC6 [1]): binds

B7: KNAT1/BP (dsDNA)
DNA 1: ATGAGGGCAAAGAGAGATGAGAGAAAATTTATACGTAC
DNA 2: GTACGTATAAATTTTCTCTCATCTCTCTTTGCCCTCAT
binding result (GFP-BPC6 [5]): binds
binding result (BPC1 [6]): binds
